Assay results reported in patent US20240272176A1, “SINGLE DOMAIN ANTIBODY SPECIFIC FOR PHOSPHORYLATED H2AX AND ITS USES” (UNIVERSITE DE STRASBOURG, priority 2021, published 2024).

What was measured:
[1] = target: T1, γ-H2AX (histone H2AX phosphorylated at serine 139) in drug-treated H1299 or U2OS cells or their extracts (human, UniProt P16104 1-143, phosphorylation of serine at position 139 (S139)); assay: mCherry fluorescence in transfected H1299 cells after CSK wash
T1 construct: Endogenous nuclear protein of H1299 and U2OS cells (fixed, living, or nuclear/histone extracts), not on the cell surface; also called gammaH2AX; γ-H2AX foci
Experimental: Thus, despite their solubility in mammalian cells, these reagents cannot be transfected into cells to detect with precision γ-H2AX after drug treatment likely due to too high chromobody expression levels.
For the analysis by classical immunofluorescence microscopy, the transfected or transduced cells were fixed with 4% paraformaldehyde for 20 minutes and, after permeabilization with 0.2% Triton X100 for 5 min, they were incubated with mAb 3F4 or VHH preparations diluted in PBS containing either 10% fetal calf serum or 2% BSA. Where indicated, the cells were treated with CSK-100 modified buffer (100 mM NaCl, 300 mM sucrose, 3 mM MgCl₂, 10 mM HEPES pH 6.8, 1 mM EGTA, and 0.2% Triton X-100) for 5 minutes prior to fixation. […] Where indicated, Alexa 568 labelled-C6B molecules were used. The labelling of the purified bivalent C6 equipped with a cysteine residue at the C-terminus was performed essentially as previously described (Shaner, N.C. et al.; Nat. Biotechnol. 2004, 22, 1567-1572). Briefly, purified protein in 0.1 M KH₂PO₄ pH 6.5, 150 mM NaCl, 1 mM EDTA, 250 mM sucrose was mixed with a 1.2 molar amount of Alexa Fluor 568 maleimide derivative (ThermoFisher Scientific). […] The amount of fluorophore per bivalent C6 in the flow-through was calculated by spectrophotometry with a Nanodrop 2000 device (ThermoFisher Scientific). […] The signal was recorded with a Leica DFC350FX camera. […]

γ-H2AX in H1299 cells = target: T2, γ-H2AX in H1299 cells (Homo sapiens, UniProt P16104); assay: Chromobody expression by transient transfection in H1299 cells with CSK buffer wash prior to fixation; type: cell-based; conditions: transfected H1299 cells
T2 construct: endogenous in cells; host or cells: H1299
Source text: The pβA-scFv-eGFP, a derivative of pDRIVE-hβ-actin (Rinaldi, A.-S. et al.; Exp. Cell Res. 2013, 319, 838-849, doi:10.1016/j.yexcr.2013.01.011) was modified by PCR to insert in frame to the scFv the E6 tag and the mCherry protein using E6T-HindIII-For/E6T-HindIII-Rev and mCherry-For/mCherry-Rev primer pairs, respectively. This vector which carries unique NcoI and SpeI restriction sites was used to sub-clone the VHH variants as described above, thereby generating pβA-C6-E6T-mCherry, pβA-C6M-E6T-mCherry, pβA-C6B-E6T-mCherry and pβA-C6BM-E6T-mCherry.
The day before transfection, 8×10^4 cells were plated in 12-well culture plates containing glass coverslips. […]
For the analysis by classical immunofluorescence microscopy, the transfected or transduced cells were fixed with 4% paraformaldehyde for 20 minutes and, after permeabilization with 0.2% Triton X100 for 5 min, they were incubated with mAb 3F4 or VHH preparations diluted in PBS containing either 10% fetal calf serum or 2% BSA. […] The amount of fluorophore per bivalent C6 in the flow-through was calculated by spectrophotometry with a Nanodrop 2000 device (ThermoFisher Scientific). […] The signal was recorded with a Leica DFC350FX camera. […] For the measurement of the nuclear fluorescence intensity, the images of microscopy fields were acquired with the 20× objective. […]

B1: C6-mCherry chromobody (expressed in transfected H1299 cells) (other, not shown: small tags and cut ends)
VHH: MADVQLVESGGGLVQAGDSLRLSCAASGLTFSRYAMGWFRQAPGNEREFVAVITASGRTTLYADSVKGRFTISRDNAKNTVALQMQSLKPEDTAVYYCAADYGTSRYTRRQSEYEYWGQGTQVTVSSAAA
notes: Expressed under the β-actin promoter from pβA-C6-E6T-mCherry; junctions not spelled out; also called C6 chromobody; C6 nanobody-mCherry
binding result [1]: no binding

B2: C6-mCherry: C6 coding region fused in frame to mCherry, expressed by transfection (protein)
VHH: B1 VHH
modifications: left off: small tags and cut ends
notes: C6 coding region fused in frame to mCherry, expressed by transfection
nuclear chromobody signal after CSK treatment (γ-H2AX in H1299 cells): entirely washed off | nuclear chromobody signal after CSK treatment (γ-H2AX in H1299 cells; listed as C6 chromobody): lost in both drug-treated and untreated cells
